This data set in a line: background-corrected fluorescence of 3'-dye-labeled ssDNA relative to brightest sequence (3'-GCGCG) (fraction); higher = brighter dye fluorescence (less quenching). In short, it runs like this:
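Arrays of single-stranded DNA, with a 3' Cy3 or Cy5 dye beside each of 1024 permuted pentamers, were built on glass slides through light-directed phosphoramidite synthesis. They were washed for 2 h at r.t. in acetonitrile and scanned at 532 or 635 nm, once before and once after overnight ethylenediamine/ethanol deprotection. Fluorescence is reported after subtracting unlabeled-oligo background and normalizing to the brightest sequence. Averages cover 10 features per array and at least 3 syntheses.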

± gives the standard error.

As for “TTTTTGCATGATGCTGCTCATTTTTTTTTTTTTTTTCAAG [GAACT]”, the background-corrected fluorescence by setting is: (dye: Cy3 (3' terminal)) 0.515 ± 0.054; (dye: Cy5 (3' terminal)) 0.39 ± 0.042.

With “TTTTTGCATGATGCTGCTGATTTTTTTTTTTTTTTTCAAC [CAACT]”, the background-corrected fluorescence reads like this: (dye: Cy3 (3' terminal)) 0.429 ± 0.0094; (dye: Cy5 (3' terminal)) 0.318 ± 0.025.

In the case of “TTTTTGCATGATGCTGCTGCTTTTTTTTTTTTTTTTCAAA [AAACT]”, the background-corrected fluorescence is, setting by setting: (dye: Cy3 (3' terminal)) 0.562 ± 0.024; (dye: Cy5 (3' terminal)) 0.462 ± 0.051.

Take “TTTTTGCATGCGCAGCAGCATTTTTTTTTTTTTTTTATTT”: the background-corrected fluorescence runs as follows: (dye: Cy3 (3' terminal)) 0.539 ± 0.04; (dye: Cy5 (3' terminal)) 0.381 ± 0.021.

“TTTTTGCATGCGCAGCATCATTTTTTTTTTTTTTTTATTG [GTTAT]”: the background-corrected fluorescence reads like this: (dye: Cy3 (3' terminal)) 0.522 ± 0.018; (dye: Cy5 (3' terminal)) 0.359 ± 0.021.

As for “TTTTTGCATGCGCAGCATGATTTTTTTTTTTTTTTTATTC [CTTAT]”, the background-corrected fluorescence amounted to 0.394 ± 0.023 (dye: Cy3 (3' terminal)) and 0.292 ± 0.018 (dye: Cy5 (3' terminal)).

“TTTTTGCATGCGCAGCATGCTTTTTTTTTTTTTTTTATTA [ATTAT]”: the background-corrected fluorescence by setting is: (dye: Cy3 (3' terminal)) 0.545 ± 0.017; (dye: Cy5 (3' terminal)) 0.409 ± 0.035.

In the case of “TTTTTGCATGCGCATCAGCATTTTTTTTTTTTTTTTATGT [TGTAT]”, the background-corrected fluorescence was 0.639 ± 0.033 (dye: Cy3 (3' terminal)) and 0.489 ± 0.046 (dye: Cy5 (3' terminal)).

For “TTTTTGCATGCGCATCATCATTTTTTTTTTTTTTTTATGG [GGTAT]”, the background-corrected fluorescence is, setting by setting: (dye: Cy3 (3' terminal)) 0.576 ± 0.011; (dye: Cy5 (3' terminal)) 0.467 ± 0.023.

Sequence “TTTTTGCATGCGCATCATGATTTTTTTTTTTTTTTTATGC [CGTAT]” gave a background-corrected fluorescence (dye: Cy3 (3' terminal)) of 0.5 ± 0.026 and a background-corrected fluorescence (dye: Cy5 (3' terminal)) of 0.377 ± 0.024.

With “TTTTTGCATGCGCATCATGCTTTTTTTTTTTTTTTTATGA [AGTAT]”, the background-corrected fluorescence was determined as 0.625 ± 0.025 (dye: Cy3 (3' terminal)) and 0.579 ± 0.047 (dye: Cy5 (3' terminal)).

“TTTTTGCATGCGCATGAGCATTTTTTTTTTTTTTTTATCT [TCTAT]”: the background-corrected fluorescence by setting is: (dye: Cy3 (3' terminal)) 0.457 ± 0.037; (dye: Cy5 (3' terminal)) 0.33 ± 0.017.

Regarding “TTTTTGCATGCGCATGATCATTTTTTTTTTTTTTTTATCG [GCTAT]”, the background-corrected fluorescence reads like this: (dye: Cy3 (3' terminal)) 0.515 ± 0.016; (dye: Cy5 (3' terminal)) 0.402 ± 0.031.

As to “TTTTTGCATGCGCATGATGATTTTTTTTTTTTTTTTATCC [CCTAT]”, the background-corrected fluorescence reads like this: (dye: Cy3 (3' terminal)) 0.384 ± 0.024; (dye: Cy5 (3' terminal)) 0.285 ± 0.019.

Regarding “TTTTTGCATGCGCATGATGCTTTTTTTTTTTTTTTTATCA [ACTAT]”, the background-corrected fluorescence by setting is: (dye: Cy3 (3' terminal)) 0.478 ± 0.033; (dye: Cy5 (3' terminal)) 0.407 ± 0.053.

“TTTTTGCATGCGCATGCGCATTTTTTTTTTTTTTTTATAT”: the background-corrected fluorescence reads like this: (dye: Cy3 (3' terminal)) 0.5701 ± 0.0051; (dye: Cy5 (3' terminal)) 0.405 ± 0.037.

Regarding “TTTTTGCATGCGCATGCTCATTTTTTTTTTTTTTTTATAG [GATAT]”, the background-corrected fluorescence reads like this: (dye: Cy3 (3' terminal)) 0.548 ± 0.02; (dye: Cy5 (3' terminal)) 0.418 ± 0.032.

Turning to “TTTTTGCATGCGCATGCTGATTTTTTTTTTTTTTTTATAC [CATAT]”, the background-corrected fluorescence was determined as 0.449 ± 0.022 (dye: Cy3 (3' terminal)) and 0.333 ± 0.035 (dye: Cy5 (3' terminal)).

Take “TTTTTGCATGCGCATGCTGCTTTTTTTTTTTTTTTTATAA [AATAT]”: the background-corrected fluorescence is 0.55 ± 0.038 (dye: Cy3 (3' terminal)) and 0.441 ± 0.069 (dye: Cy5 (3' terminal)).

Turning to “TTTTTGCATGCTCAGCAGCATTTTTTTTTTTTTTTTAGTT [TTGAT]”, the background-corrected fluorescence (dye: Cy3 (3' terminal)) is 0.592 ± 0.023 and the background-corrected fluorescence (dye: Cy5 (3' terminal)) turned out to be 0.411 ± 0.032.

On to “TTTTTGCATGCTCAGCATCATTTTTTTTTTTTTTTTAGTG [GTGAT]”, for which the background-corrected fluorescence reads like this: (dye: Cy3 (3' terminal)) 0.541 ± 0.027; (dye: Cy5 (3' terminal)) 0.455 ± 0.053.

Turning to “TTTTTGCATGCTCAGCATGATTTTTTTTTTTTTTTTAGTC [CTGAT]”, the background-corrected fluorescence runs as follows: (dye: Cy3 (3' terminal)) 0.492 ± 0.026; (dye: Cy5 (3' terminal)) 0.363 ± 0.023.

Take “TTTTTGCATGCTCAGCATGCTTTTTTTTTTTTTTTTAGTA [ATGAT]”: the background-corrected fluorescence is, setting by setting: (dye: Cy3 (3' terminal)) 0.566 ± 0.018; (dye: Cy5 (3' terminal)) 0.491 ± 0.042.

“TTTTTGCATGCTCATCAGCATTTTTTTTTTTTTTTTAGGT [TGGAT]”: the background-corrected fluorescence (dye: Cy3 (3' terminal)) stood at 0.634 ± 0.019 and the background-corrected fluorescence (dye: Cy5 (3' terminal)) came out at 0.543 ± 0.033.

Values taken from the supplement of paper PMC9428881.
